Test results published in patent US20200179236A1, “METHOD AND PRODUCT FOR CARIES TREATMENT” (Credentis AG, priority 2016, published 2020).
Where no end group is shown, it is not given here.

Assays:
[1] = pH at which the peptide starts to undergo self-assembly; type: physicochemical
Source text: Particular self-assembling peptides for use according to the invention are selected such that they are in self-assembled form when the pH of their environment is below a certain pH, e.g. below pH 7.5, e.g., at physiological ionic strength. The pH at which preferred self-assembling peptides of the invention undergo self-assembly is below 7.5, preferably below 7.2, more preferably below 7.0. For example, the pH at which the self-assembling peptide P11-4 (SEQ ID NO:1) and terminally modified P11-4 (SEQ ID NO:2) start to undergo self-assembly is about 7.5. This means that the self-assembling peptides start to self-assemble to a significant extent when the pH drops below 7.5.
As used herein, the pH at which the self-assembling peptide starts to undergo self-assembly refers to the pH below which a significant extent of self-assembly of the peptides in solution is observed, which means that at least about 25%, about 30%, about 35%, about 40%, about 45%, about 50%, about 55%, about 60%, about 65%, about 70%, about 75%, about 80%, about 85%, about 90%, about 95%, about 99% or even about 100% of the peptides found in the dental care product are assembled. In a preferred embodiment, at least about 25% of the peptides found in the dental care product are assembled below the pH at which the peptide starts to undergo self-assembly. […]

[2] = Self-assembling kinetic of P11-4 by measurements of elastic modulus G′; type: physicochemical; details: 15 mg/ml, neutral pH, 37° C., 0.1% strain, 1 rad/second; independent of ionic strength
Method: P11-4 was prepared at 15 mg/ml with different buffer compositions (see below) measured at 0.1% strain, 37° C. and a frequency of 1 rad/second. Self-assembly of peptide monomers to polymers takes more than 5 min independent of the used ionic strength at neutral pH.
Squares (top line of symbols) —NaCl: Tris (0.055 M)+NaCl, final ionic strength 142 mM;
Artifical saliva (second line of symbols from top): Tris, Ca(NO3)2, KH2PO4 (ratio 0.77:0.14: 0.08), ionic strength 142 mM;
Dulbecco's Modified Eagle Medium (DMEM): NaCl, NaHCO3,KCl,CaCl2, MgSO4 (ratio 0.66:0.4:0.05: 0.02:0.007), ionic strength 165 mM; MgSO4: 0.055 M Tris+0.192 M MgSO4 0.14 M Ionic strength

Substance: QQRFEWEFEQQ
- pH at which the peptide starts to undergo self-assembly [1]: about 7.5
- time of self-assembly of peptide monomers to polymers [2]: more than 5 min

Substance: CH3CO-QQRFEWEFEQQ-NH2 (Ac-QQRFEWEFEQQ-NH2) [terminally modified P11-4]
- pH at which the peptide starts to undergo self-assembly [1]: about 7.5
